# Columns and labels:
# [1] = target: GFP-PIF^S-TCR (moxGFP-noF-PIF^S-TCRβ) (Aequorea victoria | A. thaliana | human) (UniProt Q8L5W7)
# [2] = target: GFP-PIF^S-TCR (moxGFP-noF-PIF^S-TCRβ) (Aequorea victoria | A. thaliana | human) (UniProt Q8L5W7); test: flow cytometry on cells + other: calcium influx (Indo-1), fit of a mathematical model; surface-bound DyLight650-PhyBt on GFP-PIF^S-TCR cells (90 s, 37 C, different PhyBt concentrations and continuous 660 nm intensities) and all calcium data fitted together by maximum likelihood; PhyBt modelled as dimers, off-rates of both steps set equal; parameters are for darkness
# [3] = target: GFP-PIF^S-TCR (moxGFP-noF-PIF^S-TCRβ) (Aequorea victoria | A. thaliana | human) (UniProt Q8L5W7); remark: listed apart in the source
# [4] = target: GFP-PIF^S-TCR (moxGFP-noF-PIF^S-TCRβ) (Aequorea victoria | A. thaliana | human) (UniProt Q8L5W7); test: flow cytometry on cells + other: calcium influx (Indo-1), fit of a mathematical model; same fit as a6; half-life ln2/(koff+ki) under continuous 660 nm light, at the high end of the range of light intensities used
# Chain of PhyB tetramers (fluorescently labeled streptavidin-based tetramers of PhyB_(1-651)-Avitag-His6) (P14713 1-651): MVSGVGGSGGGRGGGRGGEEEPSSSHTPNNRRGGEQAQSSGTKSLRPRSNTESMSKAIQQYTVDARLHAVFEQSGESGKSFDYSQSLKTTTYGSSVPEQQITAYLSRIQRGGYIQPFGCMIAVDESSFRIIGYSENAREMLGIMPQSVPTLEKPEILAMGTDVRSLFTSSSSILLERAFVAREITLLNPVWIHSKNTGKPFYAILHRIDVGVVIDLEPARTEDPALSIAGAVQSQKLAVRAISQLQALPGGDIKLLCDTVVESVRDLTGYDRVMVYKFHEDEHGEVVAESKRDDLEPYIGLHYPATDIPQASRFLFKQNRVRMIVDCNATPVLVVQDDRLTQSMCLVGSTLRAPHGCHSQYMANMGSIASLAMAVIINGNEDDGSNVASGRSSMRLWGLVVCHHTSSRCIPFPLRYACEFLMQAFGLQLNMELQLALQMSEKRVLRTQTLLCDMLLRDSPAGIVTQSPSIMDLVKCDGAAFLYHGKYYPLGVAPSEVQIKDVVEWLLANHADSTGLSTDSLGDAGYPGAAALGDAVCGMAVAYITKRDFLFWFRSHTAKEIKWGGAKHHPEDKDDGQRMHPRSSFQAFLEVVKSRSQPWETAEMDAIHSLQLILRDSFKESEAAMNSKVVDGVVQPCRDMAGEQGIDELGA
# Chain of PhyB tetramers (fluorescently labeled streptavidin-based tetramers of PhyB_(1-651)-Avitag-His6) (P22629 25-183): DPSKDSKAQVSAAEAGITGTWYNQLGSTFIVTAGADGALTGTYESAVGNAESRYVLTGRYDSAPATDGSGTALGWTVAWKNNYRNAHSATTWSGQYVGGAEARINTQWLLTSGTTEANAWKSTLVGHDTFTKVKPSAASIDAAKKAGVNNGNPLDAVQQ
substance,measurement,setting,value
PhyB tetramers (fluorescently labeled streptavidin-based tetramers of PhyB_(1-651)-Avitag-His6) (from UniProt P14713 1-651; P22629 25-183) (complex),calcium influx under continuous 660 nm light of different intensities (dark to 32%) and different PhyBt concentrations; intensity threshold for a calcium response (% 660 nm intensity),[1],3
same,Kd,[2],22 nM
same,"Q = qon/qoff, association constant of multivalent binding step (darkness), dimensionless",[2],11
same,"half-life of PhyB ON-PIF-TCR complex (darkness), ln(2)/koff",[2],40 s
same,"qon, binding rate of receptor cross-linking (second, bivalent step)",[2],0.19 s⁻¹
same,"ongoing calcium response evoked by PhyBt(660) in the dark, then continuous 660 nm light of 2% to 32% intensity; intensity threshold to maintain the response (% 660 nm intensity)",[3],3
same,"half-life of the PhyB ON-TCR complex, ln2/(koff+ki), under continuous 660 nm light",[4],2 s

# Source: article PMC6488296
